The record followed here is patent US20170260282A1 (Janssen / Centocor, published 2017).

Where a chain is given by its changes, count along the chain named.

The chains are these.
T1: Human GITR (cell surface) (human, UniProt Q9Y5U5 26-241)
T1 sequence: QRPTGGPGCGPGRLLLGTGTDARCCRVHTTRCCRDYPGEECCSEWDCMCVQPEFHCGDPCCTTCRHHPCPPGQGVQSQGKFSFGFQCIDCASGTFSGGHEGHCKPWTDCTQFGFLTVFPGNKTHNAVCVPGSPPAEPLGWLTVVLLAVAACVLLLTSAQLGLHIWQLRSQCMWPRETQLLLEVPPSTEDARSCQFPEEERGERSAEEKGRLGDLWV

T2: Cyno GITR (cell surface) (cynomolgus monkey)
T2 construct: Presented on transfected or transduced HEK293 cells; also called cynomolgus monkey GITR
T2 chain: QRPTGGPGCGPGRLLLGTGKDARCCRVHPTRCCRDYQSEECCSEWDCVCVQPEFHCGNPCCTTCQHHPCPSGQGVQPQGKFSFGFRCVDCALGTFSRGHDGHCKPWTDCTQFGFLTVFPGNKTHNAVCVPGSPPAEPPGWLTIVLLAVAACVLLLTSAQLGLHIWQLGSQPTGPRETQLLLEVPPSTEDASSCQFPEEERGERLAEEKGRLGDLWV

B1: TRGB31 (antibody, human IgG1, kappa, V domains shown)
VH: EVQLVQSGAEVKKPGESLKISCKGSGYSFTSYWIGWVRQMPGKGLEWMGIIDPSDSDTRYSPSFQGQVTISADKSISTAYLQWSSLKASDTAMYYCARVFPYYGLVLDYWGQGTLVTVSS
VL: EIVLTQSPATLSLSPGERATLSCRASQSVSSYLAWYQQKPGQAPRLLIYDASNRATGIPARFSGSGSGTDFTLTISSLEPEDFAVYYCQQRSNWPLTFGQGTKVEIKR
notes: human IgG1/kappa
B2: TRGB34 (antibody, human IgG1, kappa, V domains shown)
VH: EVQLVQSGAEVKKPGESLKISCKGSGYSFTSYWIGWVRQMPGKGLEWMGIIYPGDSDTRYSPSFQGQVTISADKSISTAYLQWSSLKASDTAMYYCARDYGWHDFDYWGQGTLVTVSS
VL: B1 VL
notes: human IgG1/kappa
B3: TRGB144 (antibody, human IgG1, kappa, V domains shown)
VH: QVQLVQSGAEVKKPGSSVKVSCKASGGTFSSYAISWVRQAPGQGLEWMGGIIPIFGTANYAQKFQGRVTITADESTSTAYMELSSLRSEDTAVYYCARHGFQRGYLDYWGQGTLVTVSS
VL: B1 VL
notes: human IgG1/kappa
B4: TRGB14 (antibody, human IgG1, kappa, V domains shown)
VH: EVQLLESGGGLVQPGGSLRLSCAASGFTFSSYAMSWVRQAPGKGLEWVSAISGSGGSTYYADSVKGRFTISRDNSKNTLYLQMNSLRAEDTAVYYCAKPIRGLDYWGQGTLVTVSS
VL: B1 VL with S30N, S31N, Y32F, R91G, S92F, W94A
notes: human IgG1/kappa
B5: TRGB120 (antibody, human IgG1, kappa, V domains shown)
VH: B3 VH with H99P, G100R, F101R, Q102N, R103T, G104N, Y105E
VL: not shown
notes: human IgG1/kappa
B6: TRGB20 (antibody, human IgG1, kappa, V domains shown)
VH: EVQLLESGGGLVQPGGSLRLSCAASGFTFSGYWMNWVRQAPGKGLEWVSGISSDGGSKYYADSVKGRFTISRDNSKNTLYLQMNSLRAEDTAVYYCAKEVVYDHYAALDYWGQGTLVTVSS
VL: B1 VL with S30N, Y32F, D50Y, R91Y, S92I, N93R
notes: human IgG1/kappa
B7: TRGB134 (antibody, human IgG1, kappa, V domains shown)
VH: B3 VH with G100R, F101W, Q102G, R103S, Y105N
VL: B1 VL
notes: human IgG1/kappa
B8: TRGB162 (antibody, human IgG1, kappa, V domains shown)
VH: B3 VH with T57N, G100V, F101Y, Q102K, Y105V, D107N
VL: B1 VL
notes: human IgG1/kappa
B9: TRGB35 (antibody, human IgG1, kappa, V domains shown)
VH: B1 VH with G35S, S54G, V99H, F100R, P101W, Y102S, Y103T, G104S, V106L
VL: B1 VL
notes: human IgG1/kappa
B10: TRGB5 (antibody, human IgG1, kappa, V domains shown)
VH: EVQLLESGGGLVQPGGSLRLSCAASGFTFSGYWMSWVRQAPGKGLEWVSAISGSGGSTYYADSVKGRFTISRDNSKNTLYLQMNSLRAEDTAVYYCAKDFYWDAFDYWGQGTLVTVSS
VL: B1 VL
notes: human IgG1/kappa

In one test the target is T1, Human GITR (cell surface). Briefly: cell-based or functional assay.
On to B1, for which the “ADCC EC50, HEK293-hGITR target cells, NK-92 FcγRIIIa 176V/V effector cells” value amounted to 7.6 ng/mL.
The same measure, in the same setting: then B2, with 5.8 ng/mL.

A further test deals with T1, Human GITR (cell surface). Briefly: flow cytometry, transiently transfected HEK293F cells, 0.1 mg/mL antibody. (In general: In flow cytometry, cells or beads pass a laser one at a time.)
For the molecule B3, the binding result is listed as “binds”.
With B4, the binding result was “binds”.
For B5, the binding result is reported as “binds”.
In the case of B6, the binding result is recorded as “binds”.
As for B7, the binding result is listed as “binds”.
Regarding B8, the binding result is listed as “binds”.
Take B9: the binding result was “binds”.
As for B10, the binding result is “binds”.

For another test, the target named is T2, Cyno GITR (cell surface). Described as above.
As to B3, the binding result is given as “binds”.
As for B4, the binding result is listed as “binds”.
As for B5, the binding result was “binds”.
The same measure, in the same setting: then B6, with “binds”; and B1, with “binds”.
Still for that read-out and setting: as for B2, the entry is “binds”.
In the case of B7, the binding result is reported as “binds”.
As for B8, the binding result is “binds”.
Regarding B9, the binding result is reported as “binds”.
With B10, the binding result is listed as “binds”.
